Consider 6 proteins from the PETadex activity labels (doi:10.1016/j.bbagen.2004.12.016).

The term Km denotes the concentration of substrate that gives half-maximal velocity. Broadly, the kcat is the maximal rate divided by the concentration of active sites. As usually defined, the kcat/Km is the second-order rate constant that governs catalysis at low substrate concentration.

Where a chain is given by its changes, count along the chain named.

B1: unnamed (protein)
chain: MKQFSAKHALAVVVTAGHALAASTQGISEDLYTRLVEMATISQAAYADLCNIPSTIIKGEKIYNSQTDINGWILRDDSSKEIITVFRGTGSDTNLQLDTNYTLTPFDTLPQCNGCEVHGGYYIGWVSVQDQVESLVKQQVSQYPDYALTVTGHSLGASLAALTAAQLSATYDNIRLYTFGEPRSGNQAFASYMNDAFQASSPDTTQYFRVTHANDGIPNLPPVEQGYAHGGVEYWSVDPYSAQNTFVCTGDEVQCCEAQGGQGVNNAHTTYFGMTSGACTW
B2: unnamed (protein)
chain: B1 chain with D98N
B3: unnamed (protein)
chain: B1 chain with Y101F
B4: unnamed (protein)
chain: B1 chain with D98I
B5: unnamed (protein)
chain: B1 chain with T93R
B6: unnamed (protein)
chain: B1 chain with D92I

Substrate in one series: 2-(1-Naphthyl)butanoic acid
As to conditions: pH 5; 37 °C.
For the protein B1, the Km came out at 330 µM, the kcat was 2.33 s⁻¹ and the kcat/Km turned out to be 7060 M⁻¹ s⁻¹.

For B5, the Km worked out at 630 µM, the kcat turned out to be 3.77 s⁻¹ and the catalytic efficiency (kcat/Km) came to 5980 M⁻¹ s⁻¹.

In the case of B6, the Michaelis-Menten constant (Km) worked out at 290 µM, the kcat was determined as 2.7 s⁻¹ and the kcat/Km was determined as 9310 M⁻¹ s⁻¹.

Substrate in a further series: alpha-Naphthyl caprylate
To be noted: pH 5; 37 °C.
Regarding B1, the Km is 79 µM, the kcat worked out at 0.85 s⁻¹ and the kcat/Km is 10800 M⁻¹ s⁻¹.

Turning to B3, the Km was found to be 20 µM, the kcat worked out at 1.09 s⁻¹ and the kcat/Km was found to be 54500 M⁻¹ s⁻¹.

Regarding B5, the Km came to 17 µM, the kcat is 0.32 s⁻¹ and the kcat/Km was 18800 M⁻¹ s⁻¹.

For the protein B6, the Km turned out to be 50 µM, the kcat was 0.64 s⁻¹ and the kcat/Km came to 12800 M⁻¹ s⁻¹.

Substrate in a further series: 2-(1-Naphthyl)butanoic acid
To be noted: pH 7; 37 °C.
With B2, the Km is 180 µM, the turnover number (kcat) worked out at 32.1 s⁻¹ and the kcat/Km was determined as 178000 M⁻¹ s⁻¹.

Still in this series, the particulars now being: pH 6; 37 °C.
On to B3, for which the Km came to 630 µM, the kcat was 3.38 s⁻¹ and the kcat/Km was 5370 M⁻¹ s⁻¹.

Staying with this series, now noted: pH 7.5; 37 °C.
For B4, the Michaelis constant (Km) came to 150 µM, the kcat was 3.72 s⁻¹ and the kcat/Km came out at 24800 M⁻¹ s⁻¹.
